Reference: patent US20260209358A1
Each block holds one binder with its values, some of them ahead of it.

Experiments:
[1] = target: T1, CD37 on CD37+ target tumor cells (Daudi or Ramos cells) (UniProt P11049); test: cell-based or functional assay
T1 sequence (looked up): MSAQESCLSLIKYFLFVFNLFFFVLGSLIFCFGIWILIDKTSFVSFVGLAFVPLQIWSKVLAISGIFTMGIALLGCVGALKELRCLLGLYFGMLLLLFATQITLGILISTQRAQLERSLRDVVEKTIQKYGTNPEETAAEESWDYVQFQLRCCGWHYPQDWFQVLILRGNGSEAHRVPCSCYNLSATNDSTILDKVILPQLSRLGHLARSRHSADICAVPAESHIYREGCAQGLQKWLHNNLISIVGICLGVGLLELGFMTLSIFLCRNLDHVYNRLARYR

[2] = target: hNKp46-His (extracellular domain of hNKp46 with a C-terminal polyhistidine tag) (human) (UniProt O76036); test: BLI (Octet RED96), hNKp46-His on Ni-NTA biosensors, MB in solution, 1:1 fit
Chain of UniProt O76036 (O76036 22-258): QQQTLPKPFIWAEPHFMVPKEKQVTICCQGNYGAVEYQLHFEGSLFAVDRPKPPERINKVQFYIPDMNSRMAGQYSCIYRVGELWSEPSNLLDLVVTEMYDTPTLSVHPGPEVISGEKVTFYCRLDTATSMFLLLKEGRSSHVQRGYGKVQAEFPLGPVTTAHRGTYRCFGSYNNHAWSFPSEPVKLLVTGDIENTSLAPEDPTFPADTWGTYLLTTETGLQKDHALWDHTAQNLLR

B2: Naratuximab × NKp46-1 H1L1 CD37/NKp46 bispecific MB (protein, part only; not given: Fab constants, linkers, ferritin, scFc, not shown: another chain or arm of the molecule; large carriers; small tags and cut ends)
VH 1: QVQLVQSGAEVKKPGSSVKVSCKASGYTFSDYVINWVRQAPGQGLEWMGEIYPGSGTNYYNEKFKAKATITADKSTSTAYMELSSLRSEDTAVYYCARRGRYGLYAMDYWGQGTTVTVSS
VL 1: DIQMTQSPSSLSASVGDRVTITCRASQDISNYLNWYQQKPGKAPKLLIYYTSRLHSGVPSRFSGSGSGTDFTFTISSLQPEDIATYFCQQGNTRPWTFGGGTKVEIK
VH 2: QVQVQESGPGLVAPSQTLSITCTVSGFSLTTSGVSWVRQPPGKGLEWLGVIWGDGSTNYHPSLKSRLSIKKDHSKSQVFLKLNSLTAADTATYYCAKGGYSLAHWGQGTLVTVSS
VL 2: DIQMTQSPSSLSVSVGERVTITCRASENIRSNLAWYQQKPGKSPKLLVNVATNLADGVPSRFSGSGSGTDYSLKINSLQPEDFGTYYCQHYWGTTWTFGQGTKLEIK
EC50 of ADCC (calcein release) on Ramos cells with primary human NK cells [1]: 0.316 pM
EC50 of apoptosis (Annexin-V+ cells, flow cytometry) on Daudi cells [1]: 54 pM
Kd [2]: < 1 pM
koff [2]: < 1e-07 s⁻¹
kon [2]: 3.65e+06 M⁻¹ s⁻¹

B5: Naratuximab × NKp46-2 H1L1 CD37/NKp46 bispecific MB (protein, part only; not given: Fab constants, linkers, ferritin, scFc, not shown: another chain or arm of the molecule; large carriers; small tags and cut ends)
VH 1: QVQLQESGPGLVKPSQTLSLTCTVSGYSISSDYAWNWIRQPPGKGLEWIGYITYSGSTSYNPSLESRVTISRDTSKNQFSLKLSSVTAADTAVYYCARGGYYGSSWGVFAYWGQGTLVTVSS
VL 1: DIQMTQSPSSLSASVGDRVTITCRVSENIYSYLAWYQQKPGKAPKLLVYNAKTLAEGVPSRFSGSGSGTDFTLTISSLQPEDFATYYCQHHYGTPWTFGGGTKVEIK
VH 2: B2 VH 2
VL 2: B2 VL 2
EC50 of ADCC (calcein release) on Ramos cells with primary human NK cells [1]: 0.374 pM
EC50 of apoptosis (Annexin-V+ cells, flow cytometry) on Daudi cells [1]: 32 pM
Kd [2]: < 1 pM
koff [2]: < 1e-07 s⁻¹
kon [2]: 2.2e+06 M⁻¹ s⁻¹

B7: 016-H5L2 × NKp46-4 H1L2 CD37/NKp46 bispecific MB (protein, part only; not given: Fab constants, linkers, ferritin, scFc, not shown: another chain or arm of the molecule; large carriers; small tags and cut ends)
VH 1: EVQLVESGGGLVQPGGSLRLSCAASGFSLSNYNMGWVRQAPGKGLEWVSVIDASGTTYYATWAKGRFTISRDNSKNTLYLQMNSLRAEDTATYYCARELLYFGSSYYDLWGQGTLVTVSS
VL 1: DVVMTQSPSTLSASVGDRVTITCQASQNIDSNLAWYQQKPGKAPKFLIYYASNLPFGVPSRFKGSGSGTEFTLTISSLQPDDFATYYCQSADVGSTYVAAFGGGTKVEIK
VH 2: QVQLVQSGAEVKKPGASVKVSCKASGYTFTSFTMHWVRQAPGQGLEWIGYINPSSGYTEYNQKFKDRVTITADKSTSTAYMELSSLRSEDTAVYYCVRGSSRGFDYWGQGTLVTVSS
VL 2: DIQMTQSPSSLSASVGDRVTITCRASENIYSNLAWFQQKPGKAPKLLVYAATNLADGVPSRFSGSGSGTDYTLTISSLQPEDFATYYCQHFWGTPRTFGGGTKVEIK
modifications: The variable domains sit in single-chain Fabs fused to human ferritin light chain. The NKp46 chain also carries a C-terminal scFc. The chains form a self-assembled multivalent nanocage.
EC50 of ADCC (calcein release) on Ramos cells with primary human NK cells [1]: 3.73 pM
EC50 of apoptosis (Annexin-V+ cells, flow cytometry) on Daudi cells [1]: 142 pM
Kd [2]: < 1 pM
koff [2]: < 1e-07 s⁻¹
kon [2]: 1.67e+06 M⁻¹ s⁻¹

B8: 016-H5L2 × NKp46 09 CD37/NKp46 bispecific MB (protein, part only; not given: Fab constants, linkers, ferritin, scFc, not shown: another chain or arm of the molecule; large carriers; small tags and cut ends)
VH 1: B7 VH 1
VL 1: B7 VL 1
VH 2: EVQLQQSGAEVKKPGSSVKVSCKTSGYTFTEYSMHWVRQAPGKSLEWFGGISPNSGGTSYNQKFKGRATLTVDKSSSTAYMELSSLRSEDTAVYYCARRDFHSSFDYWGQGTTVTVSS
VL 2: DIVMTQSPATLSLSPGERATLSCRASQSISDYLHWFQQKPHESPRLLIKYASQSISGIPARFSGSGSGSDFTLTISSLEPEDFAVYYCQNGHSFPLTFGPGTKVDIK
modifications: The variable domains sit in single-chain Fabs fused to human ferritin light chain. The NKp46 chain also carries a C-terminal scFc. The chains form a self-assembled multivalent nanocage.
EC50 of ADCC (calcein release) on Ramos cells with primary human NK cells [1]: 2.72 pM
Kd [2]: < 1 pM
koff [2]: < 1e-07 s⁻¹
kon [2]: 1.06e+06 M⁻¹ s⁻¹

B9: 016-H5L2 × NKp46-1 H1L1 CD37/NKp46 bispecific MB (protein, part only; not given: Fab constants, linkers, ferritin, scFc, not shown: another chain or arm of the molecule; large carriers; small tags and cut ends)
VH 1: B7 VH 1
VL 1: B7 VL 1
VH 2: B2 VH 1
VL 2: B2 VL 1
modifications: The variable domains sit in single-chain Fabs fused to human ferritin light chain. The NKp46 chain also carries a C-terminal scFc. The chains form a self-assembled multivalent nanocage.
EC50 of ADCC (calcein release) on Ramos cells with primary human NK cells [1]: 1.2 pM
EC50 of apoptosis (Annexin-V+ cells, flow cytometry) on Daudi cells [1]: 102 pM
Kd [2]: < 1 pM
koff [2]: < 1e-07 s⁻¹
kon [2]: 2.15e+06 M⁻¹ s⁻¹

B10: 016-H5L2 × NKp46-2 H1L1 CD37/NKp46 bispecific MB (protein, part only; not given: Fab constants, linkers, ferritin, scFc, not shown: another chain or arm of the molecule; large carriers; small tags and cut ends)
VH 1: B7 VH 1
VL 1: B7 VL 1
VH 2: B5 VH 1
VL 2: B5 VL 1
modifications: The variable domains sit in single-chain Fabs fused to human ferritin light chain. The NKp46 chain also carries a C-terminal scFc. The chains form a self-assembled multivalent nanocage.
EC50 of ADCC (calcein release) on Ramos cells with primary human NK cells [1]: 2.91 pM
Kd [2]: < 1 pM
koff [2]: < 1e-07 s⁻¹
kon [2]: 1.25e+06 M⁻¹ s⁻¹

Second part, the binder after the results:

EC50 of ADCC (calcein release) on Ramos cells with primary human NK cells [1]: 5.97 pM
EC50 of ADCP on Ramos cells with THP-1 effector cells [1]: 37.4 pM
EC50 of CDC (PI+ cells) on Daudi cells with normal human serum [1]: 450 pM
B1: Naratuximab IgG (parent CD37 IgG) (antibody, V domains shown)
VH: B2 VH 2
VL: DIQMTQSPSSLSVSVGERVTITCRASENIRSNLAWYQQKPGKSPKLLVNVATNLADGVPSRFSGSGSGTDYSLKINSLQPEDFGTYYCQHYWGTTWTFGQGTKLEIKR

EC50 of ADCC (calcein release) on Ramos cells with primary human NK cells [1]: 0.777 pM
EC50 of apoptosis (Annexin-V+ cells, flow cytometry) on Daudi cells [1]: 73 pM
Kd [2]: 17.5 pM
koff [2]: 3.42e-05 s⁻¹
kon [2]: 1.96e+06 M⁻¹ s⁻¹
B3: Naratuximab × NKp46-4 H1L2 CD37/NKp46 bispecific MB (protein, part only; not given: Fab constants, linkers, ferritin, scFc, not shown: another chain or arm of the molecule; large carriers; small tags and cut ends)
VH 1: B7 VH 2
VL 1: B7 VL 2
VH 2: B2 VH 2
VL 2: B2 VL 2

EC50 of ADCC (calcein release) on Ramos cells with primary human NK cells [1]: 0.843 pM
Kd [2]: < 1 pM
koff [2]: < 1e-07 s⁻¹
kon [2]: 1.63e+06 M⁻¹ s⁻¹
B4: Naratuximab × NKp46 09 CD37/NKp46 bispecific MB (protein, part only; not given: Fab constants, linkers, ferritin, scFc, not shown: another chain or arm of the molecule; large carriers; small tags and cut ends)
VH 1: B8 VH 2
VL 1: B8 VL 2
VH 2: B2 VH 2
VL 2: B2 VL 2

EC50 of ADCC (calcein release) on Ramos cells with primary human NK cells [1]: 8.34 pM
EC50 of ADCP on Ramos cells with THP-1 effector cells [1]: 21.4 pM
B6: 016-H5L2 IgG (parent CD37 IgG) (antibody, V domains shown)
VH: B7 VH 1
VL: B7 VL 1
